Source: a protein production outcome set (Wang et al. 2014)

test: label from the status in PepcDB records

Sequence	protein production
MAQRVANIMKPFATGLVVGKFAPLHCGHEKLINTALAQCEELFIISYSVPEMPDCEPEKRLTWLQVRFPQATILVLTPELVARYNLPAIPHNDADADIHRHYVATLCLQILRCRPHAVFTAEDYGDGFANVLARRFAQPVEHVRMARPVGDEAPSGTLIRSDVHRYRYMLANDVYYSFVRRICLLGGESTGKSTLSKALADGLDTVYVAEFGRDYWEEKNGILTADDLLHIACEQVRREQQAEANHYLICDTSPLTTLFYALDQYGHAPQELHQLAEREYSLVVLCGAEFPFVQDGTRQGEVFRARQQVWYEQELSRRNIPYLSVSGPLQERVEQILRQLPD	failed
MAQSETVERILDAAEQLFAEKGFAETSLRLITSKAGVNLAAVNYHFGSKKALIQAVFSRFLGPFCASLEKELDRRQAKPEAQHATLEDLLHLLVSQAMAVKPRSGNDLSIFMRLLGLAFSQSQGHLRKYLEEVYGKVFRRYMLLVNEAAPKLPPIELFWRVHFMLGAAAFSMSGIKALRAMAETDFGVNTSTEQVMHLMVPFFAAGMRAESGIDDPLLAGAQLRPRNKTPAKA	not failed
MAQSINITELNLPQLEMLKNQLDQEVEFLSTSIAQLKVVQTKYVEAKDCLNVLNKSNEGKELLVPLTSSMYVPGKLHDVEHVLIDVGTGYYVEKTAEDAKDFFKRKIDFLTKQMEKIQPALQEKHAMKQAVMEMMSQKIQQLTALGAAQATVKA	failed
MAQTKRFVIAGGGRVGKQTAENLVDQGHDVLLIESDEERVEALSDAYIGPVIHGDATRPSILQQADLAEADAIAALTDEPGTNLAICMEAQQYAPSIRTIARAETEADHEYDEVVDATLLPEYLGGDHAADILTGEDIRTLVYPTADLDIIKVTVAPSAPVAGRRLDEIALPSGSLLISTADRTELAGADTVLKAEEQYILAVETDVVDEVLKLMRG	failed
MARAPARARGSRGLNCLAGSQQTRIPAQETDDLFTTCQFGETEEDTAVEEAETIDCLSIPKQKLAQSQKKINQFINEKMSTKANKELIRCFILSQIVFGKEHWKCAQALANLAYGYLTLRGLPAQAKKHAESARNTLLTWKRNTTSDKEKKEILETLVILYYTLGIAWLLQNHGKQAYIHLQKAQRNMKELKELNNGSIYEIQVSDKDLTIALGRASLAMHRMHLALAYFEKAICGVILAKGHDTSDLISLYEEIAQIEQLRKNHEQAIQYLQQAYSISVSSFTEVSPQTAEASALLAKAYAMSGESQHRDAVEIYFIRSISTYQTLGSEDYETLTTIEDFCTWLIQNGEKQEAYRLLKSTLNSCTFGDCGKKVAETFYNMGSICFAKGELREAIALLRKCLMIQSLIYGSEHTKSIETKSLLSLLQRPISRFPRTAEQSHGVVARAQMSKISAGMALSASASHWNNQSQMSWDSACIPMGASVLYDTSFRNAVKYSLDCHGQQPEFLSCGGSAS	failed
MARDALTDALTVGELRRRVHALVLGKRQRVYSGAMFLVEVVHHPELSAMLGLEDNKLLLAMIAQRLQMQSDYFQVARHSSDSFMVWAPDLDPRSARDVAPEVLDALSQPYELRGQPLIVGFRLSGALYAQHGACFDELERSLHIAMLHLDESAGAAWNMFEPSMLEHQRHYQGLEHHHHHH	failed
MARESRTNPRAAGRNALGARRFWFVSLAGIVLASGYDILQALQGSAAAAQRLVVPVLLLLWLYRGSDWARWILMVMLLGFGVLNMYLGTGMLRYGVQNWLHIYVFSAFMVATGLYLALAGKDFARYRSHVAARRARRAASQG	failed
MARFDRYLLSQLVALFGFFSLVLVLVYWINRAVGLFDDLISDGQSALVFLEFSLLALPNVIRLVLPLSAFAATIYVVNRLSQESELVVMQATGFSAFRLARPVIWFGLIVALMMIVLMNLLVPASRATLSARSAEISQNATARFLRDGEFLHPADGVTLYIREVTETGELRDLLLVDDRDPARSTAYTARRALLVRTDTTPKLLMIDGSAQTLTREGRRLELTRFDDVTYDLGAFMTGSGPKRRVLEELPTMTLLAPTAEVLEETRSTRAAALYEGHSRIGQPFLGFASSLIGFAALLLGSFSRFGLWWQILFAVLLLIVVQTINVAASGVGVTDEQLWPLAYAAPVTGFAIGILLLWIGQRPRRLRRALNGIFAS	failed
MARHRDRAAGMNMAMMRLRREDPRVVGSFRLHRRLGAGGMGVVYLGSDKKGQRVALKVIRPDLAEDQEFRSRFAREVSAARRIRGGCTARLVAADLEADRPWFATQYVPGPSLHDKVADGGPLGAADVAAVGAALSEGLVAVHEAGVVHRDLKPSNILLSPKGPRIIDFGIAWATGASTLTHVGTAVGSPGFLAPEQVRGAAVTPATDVFSLGATLAYASMGDSPFGHGSSEVMLYRVVHEEAQLHGVPDALAPLVRACLAKDPEERPSTLQLSLRLKEIAAREAQGMADVRPPAPRSGEADVPTGRLADTYPERAQRRPQGRPGPQGTPAPRGTSASRGSAPRGSVPSRGGAPSRGGTPSRGGTPSRGGTSSRGGGTGARSGSRPTPTRDTTGRNSSRNDGGRPAPRGGSGRTAPRTTGTGWRRPANPRLLRQRLFVFVVVTLLVALGIAAAQGCQGPARGLGDERGGGVRATQRDQVDPPGGLPEPRTPGR	failed
MARKCEITGKKTMFGNNVPRKGLAKKKGGAGQHIGVKTKRTFKVNLINKKFFIPNLGRSVSIKVSANALRSISKIGLDAFLKKNCKKIENFLLEHHHHHH	failed
MARKVILFIAMSIDNYIADDQGAVDWLEKNVHGTESDDSYEKMYSKIDTVIMGRTTYEQVTQKLSPEKYVYADRQTYIVTSHLGEDTDKIKYWKQSPVELVKRIQKEKGKDVWIVGGAKLIDPLVQANLIDTYILTTVPIFLGSGIRLFDRLEEQVPVRLIDVYQKNELVYSIYQRG	not failed
MARLGKKSRNGAFWAKALERAHLGVWDWDLRSGDCFYSATWARMLGYEEDELANTSDLWLQLTHPDDRERALASGDRHIAGLTDAIETELRLKHKLGHWVWVLDRGGIVESGADGRPLRLMGVQTDISKQKAAEAALEQVTMRFRLALAASGTGIWHYDIATHKSYWDARTREMFGVVADADEVAADLWHSFLHPDDKEATERAHWPSPGSNGVTASQYRIVKRDGEIRHIESLVRYVAAAGAAGQILGTVRDITEDKLREQELAFAARHDALTGLWNRAAFDRLLADHIAKGVPLAVFYVDLDYFKALNDFAGHAAGDLALKSVAAGIGRCLPPSAHAARLGGDEFALLVPHCDAAQAERLAAAILAAVRSADLGLAATARRLAASIGIAIVNDRATTVADALACADDACYAAKAAGRDRFAVFSAEAATGGLNAARLAADTVDAMEDGRLKLFGQEIHRLGRPWQENRHVEVLARLVGRGGKLIPPSEFIPAAERFGIAARLDRWIIRTALSRHGAAMKSGAITLGFNLSAQTLSDPGLWDFVDSIIEETGAPHSGIGFEITETAAVTNFDAAETFVRKARERRCKVSLDDFGAGMSSFEYLRRFPVDAIKIDGSFIEHMAESRFDREIVSAISGIARSVGCTVVAEKIEQAETLGILQTMGVDFGQGFLLHRPEPLEQIVARAAGPARAAPARKAS	failed
MARPKSKTKKILFAVEIIVLLLFIGGLYVYGQLNSKLDKINQPVLDDSKIKVNQEVQDSIDSQESTLTGYTTYALFGIDHRDKNTALGGENSDTIIIASVNNDTKDVKLVSVYRDTLLNLGNDTYSKANAAYAYGEAEQAITMLNTNLDLNISEYATVNFNALTTIIDDLGGLDMDMSYAEIVHMNNYCVETSEETGKDYTPIELPDRPDDIEAVQYHYHLNGVQATSYCRIRYTASLDMGRTERQRRVIQMIVSKAKSAGLGKIFKIMDDVFPMVTTSMTKDEILQLLPTLIGYSVDDTTGFPTSYKFSNVKGSIIVPTTLETNVIELHKFLYGDEAYTPSATVKANSEKILEIVGGESSLDDKQATVEENTTNDTVIFEKNGSGWSDTSSDYGSDSDSSGGGDYSGDETDNSGGSSSGGGDYSNDGSDNSGGDSSGGEDYEGPTTPEPDYGGDDNGGGDTGGDESGGGDTGGDESGGGDIVDEGSGDDSGAAAEATGTPDAA	failed
MARPRKPTNVLELTGAFKKDPQRRREDAEPVGELTAPPAHINGAVLHAWKEIAKYAPRDVLTNSDRLSLELAANLLAQFRNDPLDFPAAKLVRLEAMLGKFGMTPADRSKVGGGKKDAPKGNAFAEL	failed
MARRDISGAVDFAYLEGFAAGDFAVVDEVLALFREQAALWAPMLDPTHPGWKDAVHTVKGAARGVGAFNLGEVCERCEAGQESLEGVRTALDAALLDIAAYAHEQALRSLKG	not failed
